Experimental findings from patent US20160304570A1 are described below.

What all share (assay): cell-based or functional assay
The target of assay [1] is human Nav1.5 voltage-gated sodium channel (human) (UniProt Q14524).
Assay [2] concerns the target human Nav1.3 voltage-gated sodium channel (human) (UniProt Q9NY46).
Assay [3] addresses human Nav1.7 voltage-gated sodium channel (human) (UniProt Q15858).
For assay [4], the target named is human Nav1.4 voltage-gated sodium channel (human) (UniProt P35499).
In assay [5] the target is human voltage-gated sodium channel Nav1.7 (human) (UniProt Q15858).
In assay [6] the target is human voltage-gated sodium channel Nav1.5 (human) (UniProt Q14524).
Assay [7] has as its target human voltage-gated sodium channel Nav1.4 (human) (UniProt P35499).

Non-standard residues stand in square brackets, D forms with d. No end group written: not given here. 4‑Pen = not defined here; Pra = C#CC[C@H](N)C(=O)O; Abu = CC[C@H](N)C(=O)O

human Nav1.7 voltage-gated sodium channel (human), sequence (Q15858 whole entry): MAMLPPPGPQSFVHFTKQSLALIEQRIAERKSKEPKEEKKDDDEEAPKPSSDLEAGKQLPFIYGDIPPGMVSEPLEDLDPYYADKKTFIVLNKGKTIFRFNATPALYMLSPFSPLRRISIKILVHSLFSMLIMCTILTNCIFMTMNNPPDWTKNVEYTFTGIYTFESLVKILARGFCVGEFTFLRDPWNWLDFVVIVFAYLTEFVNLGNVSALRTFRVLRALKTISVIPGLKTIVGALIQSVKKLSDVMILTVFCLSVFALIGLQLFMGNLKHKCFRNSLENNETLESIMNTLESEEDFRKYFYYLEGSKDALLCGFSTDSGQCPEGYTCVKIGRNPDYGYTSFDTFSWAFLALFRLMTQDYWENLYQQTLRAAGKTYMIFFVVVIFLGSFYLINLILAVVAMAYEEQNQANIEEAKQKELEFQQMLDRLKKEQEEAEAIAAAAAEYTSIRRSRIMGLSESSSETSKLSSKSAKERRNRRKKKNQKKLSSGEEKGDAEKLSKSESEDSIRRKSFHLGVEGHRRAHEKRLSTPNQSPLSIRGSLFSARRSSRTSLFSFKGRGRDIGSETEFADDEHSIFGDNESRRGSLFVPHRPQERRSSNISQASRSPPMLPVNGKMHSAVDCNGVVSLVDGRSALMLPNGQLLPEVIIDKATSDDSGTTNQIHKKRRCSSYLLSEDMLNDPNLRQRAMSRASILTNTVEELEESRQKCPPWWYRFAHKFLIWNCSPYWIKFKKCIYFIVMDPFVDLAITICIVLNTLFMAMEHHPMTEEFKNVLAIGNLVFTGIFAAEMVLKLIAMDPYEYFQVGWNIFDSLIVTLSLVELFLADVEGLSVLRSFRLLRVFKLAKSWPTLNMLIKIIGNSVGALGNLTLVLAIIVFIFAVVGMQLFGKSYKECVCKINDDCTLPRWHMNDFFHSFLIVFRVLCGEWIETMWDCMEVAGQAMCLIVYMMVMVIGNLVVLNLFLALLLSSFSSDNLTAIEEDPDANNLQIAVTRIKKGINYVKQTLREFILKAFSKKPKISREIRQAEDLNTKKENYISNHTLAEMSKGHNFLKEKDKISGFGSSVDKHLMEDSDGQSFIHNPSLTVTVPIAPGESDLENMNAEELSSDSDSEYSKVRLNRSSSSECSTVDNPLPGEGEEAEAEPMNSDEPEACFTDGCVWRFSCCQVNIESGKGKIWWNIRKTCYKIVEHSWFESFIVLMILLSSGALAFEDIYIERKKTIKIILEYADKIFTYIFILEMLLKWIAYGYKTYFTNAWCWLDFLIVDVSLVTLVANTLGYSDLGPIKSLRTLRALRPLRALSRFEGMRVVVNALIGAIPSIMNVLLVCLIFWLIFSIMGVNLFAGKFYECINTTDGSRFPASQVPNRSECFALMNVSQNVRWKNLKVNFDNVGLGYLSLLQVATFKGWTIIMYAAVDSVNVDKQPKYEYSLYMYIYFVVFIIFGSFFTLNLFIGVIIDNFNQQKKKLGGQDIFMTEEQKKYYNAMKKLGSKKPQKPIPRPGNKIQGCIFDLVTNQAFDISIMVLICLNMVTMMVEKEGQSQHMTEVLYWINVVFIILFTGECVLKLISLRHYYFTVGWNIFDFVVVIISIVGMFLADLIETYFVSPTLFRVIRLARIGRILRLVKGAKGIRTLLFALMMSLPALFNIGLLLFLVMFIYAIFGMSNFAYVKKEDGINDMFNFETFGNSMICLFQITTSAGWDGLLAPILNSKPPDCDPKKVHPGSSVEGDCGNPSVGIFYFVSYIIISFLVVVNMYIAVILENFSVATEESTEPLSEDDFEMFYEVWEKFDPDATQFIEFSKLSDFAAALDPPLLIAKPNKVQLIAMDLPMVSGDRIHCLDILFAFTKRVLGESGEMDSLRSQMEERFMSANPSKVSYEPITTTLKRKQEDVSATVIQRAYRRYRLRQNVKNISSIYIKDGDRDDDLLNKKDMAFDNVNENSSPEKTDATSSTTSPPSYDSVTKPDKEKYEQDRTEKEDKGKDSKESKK
human Nav1.4 voltage-gated sodium channel (human), sequence (P35499 whole entry): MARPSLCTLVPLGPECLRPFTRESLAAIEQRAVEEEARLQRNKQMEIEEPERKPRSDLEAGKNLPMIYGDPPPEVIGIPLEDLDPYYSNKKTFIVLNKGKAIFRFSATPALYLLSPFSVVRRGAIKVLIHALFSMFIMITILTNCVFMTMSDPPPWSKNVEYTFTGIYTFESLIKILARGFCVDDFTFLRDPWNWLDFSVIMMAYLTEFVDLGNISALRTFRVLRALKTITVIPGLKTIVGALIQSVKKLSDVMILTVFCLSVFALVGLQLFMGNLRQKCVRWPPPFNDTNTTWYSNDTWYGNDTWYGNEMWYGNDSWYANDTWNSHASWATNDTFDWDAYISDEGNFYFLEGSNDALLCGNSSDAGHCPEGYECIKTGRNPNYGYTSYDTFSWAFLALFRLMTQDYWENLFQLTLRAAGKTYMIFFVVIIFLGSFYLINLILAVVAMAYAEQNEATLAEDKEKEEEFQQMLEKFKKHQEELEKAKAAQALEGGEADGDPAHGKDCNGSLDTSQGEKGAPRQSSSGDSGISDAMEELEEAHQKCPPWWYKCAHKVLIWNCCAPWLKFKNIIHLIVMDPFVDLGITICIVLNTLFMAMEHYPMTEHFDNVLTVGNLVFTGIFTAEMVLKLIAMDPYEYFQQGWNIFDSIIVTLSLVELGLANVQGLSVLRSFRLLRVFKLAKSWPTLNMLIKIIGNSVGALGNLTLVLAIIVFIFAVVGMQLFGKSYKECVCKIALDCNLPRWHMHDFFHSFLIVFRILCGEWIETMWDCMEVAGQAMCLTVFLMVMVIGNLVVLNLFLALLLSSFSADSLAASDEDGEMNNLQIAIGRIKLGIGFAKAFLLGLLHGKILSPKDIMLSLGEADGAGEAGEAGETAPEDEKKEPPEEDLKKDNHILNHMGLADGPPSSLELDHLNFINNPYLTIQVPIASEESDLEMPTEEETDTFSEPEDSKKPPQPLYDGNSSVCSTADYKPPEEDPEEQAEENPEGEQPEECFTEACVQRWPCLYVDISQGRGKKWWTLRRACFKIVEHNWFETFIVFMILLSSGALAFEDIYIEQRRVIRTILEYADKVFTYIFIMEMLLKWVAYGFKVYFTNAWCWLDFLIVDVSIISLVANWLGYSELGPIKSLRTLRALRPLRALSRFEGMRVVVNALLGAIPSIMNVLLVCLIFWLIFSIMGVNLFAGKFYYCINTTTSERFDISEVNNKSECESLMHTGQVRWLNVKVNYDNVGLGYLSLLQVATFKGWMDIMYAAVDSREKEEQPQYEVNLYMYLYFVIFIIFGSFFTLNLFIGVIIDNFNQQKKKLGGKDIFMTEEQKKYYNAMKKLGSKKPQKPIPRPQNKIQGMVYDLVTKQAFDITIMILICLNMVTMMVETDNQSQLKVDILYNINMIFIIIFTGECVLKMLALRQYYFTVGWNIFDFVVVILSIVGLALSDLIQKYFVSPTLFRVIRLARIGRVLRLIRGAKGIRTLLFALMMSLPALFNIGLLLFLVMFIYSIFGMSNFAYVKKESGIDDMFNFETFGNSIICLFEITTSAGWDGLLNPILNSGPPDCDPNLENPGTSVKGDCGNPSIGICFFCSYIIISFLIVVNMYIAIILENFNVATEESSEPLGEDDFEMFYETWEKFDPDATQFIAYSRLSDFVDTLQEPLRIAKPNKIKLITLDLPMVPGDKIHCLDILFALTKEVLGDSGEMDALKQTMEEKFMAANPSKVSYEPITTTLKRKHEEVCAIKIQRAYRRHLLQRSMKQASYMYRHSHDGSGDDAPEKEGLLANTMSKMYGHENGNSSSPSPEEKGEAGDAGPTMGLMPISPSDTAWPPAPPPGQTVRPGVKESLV
human voltage-gated sodium channel Nav1.7 (human), sequence (Q15858 whole entry): as the sequence (Q15858 whole entry) above
human voltage-gated sodium channel Nav1.4 (human), sequence (P35499 whole entry): as the sequence (P35499 whole entry) above

In assay [1], “[Ala5;Phe6;K(Ac-Pra)13;Arg28]GpTx-1(1-34) (peptide)” had an IWQ Use Nav1.5 IC50 (IonWorks Quattro electrophysiology) of 24.6 µM. Also, in assay [2], the IWQ Use Nav1.3 IC50 (IonWorks Quattro electrophysiology) was found to be 0.25 µM. Further, in assay [3], the IWQ Use Nav1.7 IC50 (IonWorks Quattro electrophysiology) is 0.78 µM. For the same molecule, the IWQ Use Nav1.4 IC50 (IonWorks Quattro electrophysiology) in assay [4] worked out at 18 µM.
In assay [1], DCLGALRKCEPD[Pra]DKCCRPNLVCSRLHRWCKYVF (ends and bridges not checked) [[Ala5;Leu6,26;Glu10;Pra13;Arg28]GpTx-1(1-34)] yielded an IWQ Use Nav1.5 IC50 (IonWorks Quattro electrophysiology) above 50 µM. This molecule came in with a Nav1.7 Use IC50 (µM), electrophysiology by PatchXpress in assay [5] of 0.013 µM. This molecule also displayed a Nav1.5 Use IC50 (µM), electrophysiology by PatchXpress in assay [6] above 10 µM. The molecule further showed an IWQ Use Nav1.3 IC50 (IonWorks Quattro electrophysiology) in assay [2] of 1.4 µM. Moreover, the IWQ Use Nav1.7 IC50 (IonWorks Quattro electrophysiology) in assay [3] stood at 0.7 µM. This molecule gave a Nav1.4 Use IC50 (µM), electrophysiology by PatchXpress in assay [7] above 10 µM. This molecule also gave an IWQ Use Nav1.4 IC50 (IonWorks Quattro electrophysiology) in assay [4] above 50 µM.
In assay [1], DCLG[Abu]LRKCIPDK(4‑Pen)DKCCRPNLVCSRTHEWCKYVF (ends and bridges not checked) [[2-Abu5;Leu6;K(4-Pen)13;Glu28]GpTx-1(1-34)] yielded an IWQ Use Nav1.5 IC50 (IonWorks Quattro electrophysiology) above 5 µM. In assay [2], this molecule yielded an IWQ Use Nav1.3 IC50 (IonWorks Quattro electrophysiology) of 4.1 µM. For the same molecule, in assay [3], the IWQ Use Nav1.7 IC50 (IonWorks Quattro electrophysiology) is 1.8 µM. In assay [4], this molecule showed an IWQ Use Nav1.4 IC50 (IonWorks Quattro electrophysiology) above 5 µM.
